Experimental data from publication PMC11343839, “Structural mechanism of proton conduction in otopetrin proton channel” (Nature Communications, 2024).
Residue numbers refer to the chain shown, from its start. Numbers in names are those of the source.

B1: Mus musculus Otopetrin 2 (mOTOP2), wild type (natural protein)
chain: MSEELVPHPNESLPGPRASPREVWKKGGRLLSVLLAVNVLLLACTLISGGAFNKVAVYDTDVFALLTTMMLLAALWIVFYLLRTARCPDAVPYRDAHAGPIWLRGGLVLFGICTLVMDVFKTGYYSSFFECQSAIKILHPIIQAVFVIVQTYFLWISAKDCIHTHLDLTRCGLMFTLATNLAIWMAAVVDESVHQAHSYSGSHGNTSHTRLNPDSKRAGGAAEEDPCLCSTAICQIFQQGYFYLYPFNIEYSLFASTMLYVMWKNVGRLLASTHGHGHTPSRVSLFRETFFAGPVLGLLLFVVGLAVFILYEVQVSGERGHTRQALVIYYSFNIVCLGLMTLVSLSGSVIYRFDRRAMDHHKNPTRTLDVALLMGAALGQYAISYYSIVAVVVGSPRDLQGALNLSHALLMIAQHTFQNVFIIESLHRGPPGAEPREMPPKEPCQGITFANLDAIRTLPSCPPTPRLVIPNLESPQEAVAIISAPRCHWRRRCLKDISLFLLLCNVILWIMPAFGARPHFSNTVEVDFYGYSLWAAIVNICLPFGIFYRMHAVSSLLEVYVLS
notes: Otopetrin 2 (mOTOP2), Mus musculus; wild type; the AlphaFold model AF-Q80SX5-F1 was the initial model; N-terminal 10x His tag, then GFP, then a thrombin cleavage site; residues of the site may remain after digestion; also called mouse OTOP2; WT mOTOP2; source: HEK293F cells (BacMam system), purified (Ni-NTA, thrombin digestion on column, Superose 6 SEC in GDN); not shown: His10, N-terminal, …
B2: mOTOP2 V370W (natural protein, Mus musculus)
chain: B1 chain with V370W
notes: Otopetrin 2 (mOTOP2), Mus musculus, with the point mutation V370W on TM9; same construct as the wild-type channel; The general purification protocol removes His10-GFP with thrombin; also called mOTOP2 V370W loss-of-function mutant; source: HEK293F cells (pEZTBM vector, same construct as the wild type), purified
B3: mOTOP2 M374W (natural protein, Mus musculus)
chain: B1 chain with M374W
notes: Otopetrin 2 (mOTOP2), Mus musculus, with the point mutation M374W on TM9; same construct as the wild-type channel; The general purification protocol removes His10-GFP with thrombin; also called mOTOP2 M374W loss-of-function mutant; source: HEK293F cells (pEZTBM vector, same construct as the wild type), purified
B4: mOTOP2 L30W (natural protein, Mus musculus)
chain: B1 chain with L30W
notes: Otopetrin 2 (mOTOP2), Mus musculus, with the point mutation L30W on TM1; same construct as the wild-type channel; The general purification protocol removes His10-GFP with thrombin; also called mOTOP2 L30W loss-of-function mutant; source: HEK293F cells (pEZTBM vector, same construct as the wild type), purified
B5: Caenorhabditis elegans Otopetrin-like 8 (CeOTOP8), wild type, full length (natural protein, UniProt G5EDX5 1-619, looked up)
chain: MLMVDEQLKIGATPMYSPSHNPIVIADDMEKGGSDSDSLPSSPTHHHELYRRPWIHEPRATNFFVRLITSLYALILTIISLVVEVSPTWRTDMWLAETIFYISMYGVGILFFAYCYIFIIYPGPYNQLISVLRKYKIIKNSEVWFIMQSQHNGEGAGTLYLRLGALFFGSVGIVLFGLELFLCIENVACKKVAIAKMIVAIVFTFIQMHFIFCNSKITVNSSRKIVAFGMMHLISVNLWTWFRFVLAKQEAKAHKKAQLKQTFRKYYSSSSSSSSEEIHELISAVLNSTLNNTPATKTMEPVASRLFALEHFGDVATFLTTCIVEYSLIGAAIMFILWKSIGQNNHQQSNSGKRKVKMRIDCSSSSTGLFAGIIFLIGSLVSMGMYTIFESLRNSSGAQLVFGIVDLSLFSIALGACIIGLWRMRHLQYRLHAHGEVIDEILLIIGLIGEILYCAVGIDVFITCRRSADLTVSALPAFVFVIRMIQVVVQAAFILTTSRLRCLSKYSMKYKPGKEIITFLLVSNVTLFVFHTFEGMKSSFGFSSKAATQYNYIIYAVGPLLVFYRFHSSACLAEIWKHTYSTKSNEYDHEHMSLSDSNLTAITPISDIKEIPSPQLLKH
notes: Otopetrin-like 8 (CeOTOP8), Caenorhabditis elegans; wild-type full-length channel; the AlphaFold model AF-G5EDX5-F1 was the initial model; A thrombin cleavage site stood between the protein and the C-terminal 10x His tag; residues of the site may remain after digestion; also called WT CeOTOP8; source: HEK293F cells (BacMam system), purified (Ni-NTA, thrombin digestion on column, Superose 6 SEC in …)

Legend:
[1] = target: the molecule itself; test: cryo-EM structure; single-particle cryo-EM of protein purified in GDN detergent (20 mM Tris, 150 mM NaCl, 0.04% GDN), 3.0 mg/mL; samples at pH 5.0 and 8.0 (CeOTOP8), pH 5.0, 7.0, 8.0 and 9.0 (mOTOP2), pH 8.0 (mOTOP2 M374W)
[2] = target: the molecule itself; test: SEC; loss-of-function mutants of mOTOP2 purified as a stable dimer (Supplementary Fig. 10b, not shown); the general purification ends with Superose 6 10/300 GL in 20 mM Tris pH 8.0, 150 mM NaCl, 0.04% GDN

| Protein | stoichiometry N [1] | stoichiometry N [2] |
| --- | --- | --- |
| B1 | 2 | – |
| B2 | – | 2 |
| B3 | – | 2 |
| B4 | – | 2 |
| B5 | 2 | – |
